Data as given in article PMC8668187.
Several values for one entry are separate records, joined by “and”; a condition that tells them apart may be missing. Equal entries are not always repeated. Values belong to the substance of their own block, whether it stands above or below them.

Tests used:
[1] = molecular target: CsGSIb EVK138DIQ mutant (Camellia sinensis)
[2] = molecular target: CsGSIb EVK138DIQ mutant (Camellia sinensis); experiment: SEC-MALS; Superdex 200 10/300 GL with MALS and QELS; 50 mM KPi pH 7.0, 100 mM NaCl, 1 mM β-mercaptoethanol, 0.05 % NaN3; room temperature (~23 °C); self-association of the GS
[3] = molecular target: CsGSIb EVK138DIQ mutant (Camellia sinensis); experiment: AUC; sedimentation velocity, 0.1/0.25/0.5 mg/mL, 50 mM Tris-HCl pH 7.4, 100 mM NaCl, 1.5 mM β-mercaptoethanol, rotor at 20 °C (results: room temperature); global fit; decamer to two pentamers
[4] = molecular target: CsGSIb I143L mutant (Camellia sinensis)
[5] = molecular target: CsGSIb I143L mutant (Camellia sinensis); experiment: SEC-MALS; Superdex 200 10/300 GL with MALS and QELS; 50 mM KPi pH 7.0, 100 mM NaCl, 1 mM β-mercaptoethanol, 0.05 % NaN3; room temperature (~23 °C); self-association of the GS
[6] = molecular target: CsGSIb I143L mutant (Camellia sinensis); experiment: AUC; sedimentation velocity, 0.1/0.25/0.5 mg/mL, 50 mM Tris-HCl pH 7.4, 100 mM NaCl, 1.5 mM β-mercaptoethanol, rotor at 20 °C (results: room temperature); global fit; decamer to two pentamers
[7] = molecular target: glutamine synthetase CsGSIb from Camellia sinensis, wild type (Camellia sinensis)
[8] = molecular target: glutamine synthetase CsGSIb from Camellia sinensis, wild type (Camellia sinensis); experiment: SEC-MALS; Superdex 200 10/300 GL with MALS and QELS; 50 mM KPi pH 7.0, 100 mM NaCl, 1 mM β-mercaptoethanol, 0.05 % NaN3; room temperature (~23 °C); self-association of the GS
[9] = molecular target: glutamine synthetase CsGSIb from Camellia sinensis, wild type (Camellia sinensis); experiment: AUC; sedimentation velocity, 0.1/0.25/0.5 mg/mL, 50 mM Tris-HCl pH 7.4, 100 mM NaCl, 1.5 mM β-mercaptoethanol, rotor at 20 °C (results: room temperature); global fit; decamer to two pentamers
[10] = molecular target: glutamine synthetase GmGSβ2 from Glycine max (Glycine max); experiment: SEC-MALS; Superdex 200 10/300 GL with MALS and QELS; 50 mM KPi pH 7.0, 100 mM NaCl, 1 mM β-mercaptoethanol, 0.05 % NaN3; room temperature (~23 °C); self-association of the GS

glutamine synthetase activity, increase over wild-type CsGSIb (1 μM monomer enzyme, 30 min, 37 °C) [1]: 64 fold | fraction decameric [2]: 72% | Kd [3]: 40 nM
Substance: CsGSIb EVK138DIQ mutant (enzyme)

glutamine synthetase activity, increase over wild-type CsGSIb (1 μM monomer enzyme, 30 min, 37 °C) [4]: 76 fold | fraction decameric [5]: > 95% | Kd [6]: 10 nM
Substance: CsGSIb I143L mutant (enzyme)

glutamine synthetase activity on raising the CsGSIb concentration from 1 μM to 5 μM (monomer) [7]: 30 fold | fraction decameric [8]: 18% | fraction pentameric [8]: 82% | stoichiometry N [8]: 5 and 10 | Kd [9]: 270 nM | stoichiometry N [9]: 10 and 5
Substance: glutamine synthetase CsGSIb from Camellia sinensis, wild type (enzyme)

stoichiometry N [10]: 10
Substance: glutamine synthetase GmGSβ2 from Glycine max (enzyme)
